Consider 48 variants from the Human Domainome abundance scans (Beltran et al. 2025).

First the molecules themselves.
B1: SH3 and PX domain-containing protein 2B, residues 155 to 209; numbered along this chain, A1X283 (parent)
chain: EQYVVVANYQKQESSEISLSVGQVVDIIEKNESGWWFVSTAEEQGWVPATCLEGQ

± gives the uncertainty stated by the source.

The variants in this data set derive from B1. Put plainly: abundance fitness (aPCA) (normalised: wild type 0, dead -1); higher = more abundant; growth selection in yeast, the domain comes from the species named. Particulars: Homo sapiens.
For EQYVVVANYQKQESPEISLSVGQVVDIIEKNESGWWFVSTAEEQGWVPATCLEGQ [S15P], the abundance fitness was -0.121 ± 0.13.
The result for EQYVVVANYQKQESLEISLSVGQVVDIIEKNESGWWFVSTAEEQGWVPATCLEGQ [S15L] reads -0.27 ± 0.079; that for EQYVVVANYQKQESGEISLSVGQVVDIIEKNESGWWFVSTAEEQGWVPATCLEGQ [S15G], -0.073 ± 0.073.
EQYVVVANYQKQESVEISLSVGQVVDIIEKNESGWWFVSTAEEQGWVPATCLEGQ [S15V]: the abundance fitness was -0.119 ± 0.095.
The result for EQYVVVANYQKQESQEISLSVGQVVDIIEKNESGWWFVSTAEEQGWVPATCLEGQ [S15Q] reads 0.103 ± 0.12; that for EQYVVVANYQQQESSEISLSVGQVVDIIEKNESGWWFVSTAEEQGWVPATCLEGQ [K11Q], -0.132 ± 0.13; that for EQYVVVANYQNQESSEISLSVGQVVDIIEKNESGWWFVSTAEEQGWVPATCLEGQ [K11N], -0.33 ± 0.16.
The result for EQYVVVANYQTQESSEISLSVGQVVDIIEKNESGWWFVSTAEEQGWVPATCLEGQ [K11T] reads -0.357 ± 0.14; that for EQYVVVANYQMQESSEISLSVGQVVDIIEKNESGWWFVSTAEEQGWVPATCLEGQ [K11M], -0.115 ± 0.18.
On to EQYVVVANYQPQESSEISLSVGQVVDIIEKNESGWWFVSTAEEQGWVPATCLEGQ [K11P], for which the abundance fitness is -0.034 ± 0.1.
On to EQYVVVANYQSQESSEISLSVGQVVDIIEKNESGWWFVSTAEEQGWVPATCLEGQ [K11S], for which the abundance fitness is -0.072 ± 0.087.
For EQYVVVANYQYQESSEISLSVGQVVDIIEKNESGWWFVSTAEEQGWVPATCLEGQ [K11Y], the abundance fitness was -0.465 ± 0.14.
For EQYVVVANYQRQESSEISLSVGQVVDIIEKNESGWWFVSTAEEQGWVPATCLEGQ [K11R] the value was 0.069 ± 0.065; for EQYVVVANYQWQESSEISLSVGQVVDIIEKNESGWWFVSTAEEQGWVPATCLEGQ [K11W], -0.496 ± 0.12; for EQYVVVANYQKQESSECSLSVGQVVDIIEKNESGWWFVSTAEEQGWVPATCLEGQ [I17C], 0.014 ± 0.1.
For EQYVVVANYQKQESSEASLSVGQVVDIIEKNESGWWFVSTAEEQGWVPATCLEGQ [I17A] the value was -0.201 ± 0.13.
The result for EQYVVVANYQKPESSEISLSVGQVVDIIEKNESGWWFVSTAEEQGWVPATCLEGQ [Q12P] reads -0.276 ± 0.087; that for EQYVVVANYQKIESSEISLSVGQVVDIIEKNESGWWFVSTAEEQGWVPATCLEGQ [Q12I], -0.19 ± 0.14; that for EQYVVVANYQKSESSEISLSVGQVVDIIEKNESGWWFVSTAEEQGWVPATCLEGQ [Q12S], -0.038 ± 0.073.
For EQYVVVANYQKHESSEISLSVGQVVDIIEKNESGWWFVSTAEEQGWVPATCLEGQ [Q12H], the abundance fitness was -0.114 ± 0.19.
As for EQYVVVANYQKVESSEISLSVGQVVDIIEKNESGWWFVSTAEEQGWVPATCLEGQ [Q12V], the abundance fitness turned out to be 0.02 ± 0.08.
Regarding EQYVVVANYQKGESSEISLSVGQVVDIIEKNESGWWFVSTAEEQGWVPATCLEGQ [Q12G], the abundance fitness was -0.14 ± 0.074.
As to EQYVVVANYQKRESSEISLSVGQVVDIIEKNESGWWFVSTAEEQGWVPATCLEGQ [Q12R], the abundance fitness was -0.066 ± 0.068.
Consider EQYVVVANYQKDESSEISLSVGQVVDIIEKNESGWWFVSTAEEQGWVPATCLEGQ [Q12D], for which the abundance fitness was -0.241 ± 0.15.
For EQYVVVANYQKKESSEISLSVGQVVDIIEKNESGWWFVSTAEEQGWVPATCLEGQ [Q12K], the abundance fitness was found to be 0.013 ± 0.094.
On to EQYVVVANYQKEESSEISLSVGQVVDIIEKNESGWWFVSTAEEQGWVPATCLEGQ [Q12E], for which the abundance fitness is -0.195 ± 0.14.
For the variant EQYVVVANYQKNESSEISLSVGQVVDIIEKNESGWWFVSTAEEQGWVPATCLEGQ [Q12N], the abundance fitness is -0.183 ± 0.14.
For EQYVVVANYQKCESSEISLSVGQVVDIIEKNESGWWFVSTAEEQGWVPATCLEGQ [Q12C] the value was -0.228 ± 0.1; for EQYVVVANYQKYESSEISLSVGQVVDIIEKNESGWWFVSTAEEQGWVPATCLEGQ [Q12Y], -0.313 ± 0.3.
The result for EQYVVVANYQKFESSEISLSVGQVVDIIEKNESGWWFVSTAEEQGWVPATCLEGQ [Q12F] reads 0.001 ± 0.16; that for EQYVVVANYQKMESSEISLSVGQVVDIIEKNESGWWFVSTAEEQGWVPATCLEGQ [Q12M], -0.182 ± 0.14; that for EQYVVVANYQKQESSFISLSVGQVVDIIEKNESGWWFVSTAEEQGWVPATCLEGQ [E16F], -0.868 ± 0.17.
The result for EQYVVVANYQKQESSIISLSVGQVVDIIEKNESGWWFVSTAEEQGWVPATCLEGQ [E16I] reads -0.692 ± 0.19.
For EQYVVVANYQKQESSLISLSVGQVVDIIEKNESGWWFVSTAEEQGWVPATCLEGQ [E16L], the abundance fitness was -0.805 ± 0.12.
As for EQYVVVANYQKQESSWISLSVGQVVDIIEKNESGWWFVSTAEEQGWVPATCLEGQ [E16W], the abundance fitness was -0.55 ± 0.12.
Consider EQYVVVANYQKQESSTISLSVGQVVDIIEKNESGWWFVSTAEEQGWVPATCLEGQ [E16T], for which the abundance fitness was -0.178 ± 0.1.
The result for EQYVVVANYQKQESSVISLSVGQVVDIIEKNESGWWFVSTAEEQGWVPATCLEGQ [E16V] reads -0.92 ± 0.093; that for EQYVVVANYQKQESSNISLSVGQVVDIIEKNESGWWFVSTAEEQGWVPATCLEGQ [E16N], -0.2 ± 0.14.
As to EQYVVVANYQKQESSCISLSVGQVVDIIEKNESGWWFVSTAEEQGWVPATCLEGQ [E16C], the abundance fitness was -0.505 ± 0.16.
As for EQYVVVANYQKQESSAISLSVGQVVDIIEKNESGWWFVSTAEEQGWVPATCLEGQ [E16A], the abundance fitness was -0.312 ± 0.079.
Turning to EQYVVVANYQKQESSYISLSVGQVVDIIEKNESGWWFVSTAEEQGWVPATCLEGQ [E16Y], the abundance fitness is -0.853 ± 0.3.
The result for EQYVVVANYQKQESSMISLSVGQVVDIIEKNESGWWFVSTAEEQGWVPATCLEGQ [E16M] reads -0.449 ± 0.093; that for EQYVVVANYQKQESSPISLSVGQVVDIIEKNESGWWFVSTAEEQGWVPATCLEGQ [E16P], -0.667 ± 0.17; that for EQYVVVANYQKQESSSISLSVGQVVDIIEKNESGWWFVSTAEEQGWVPATCLEGQ [E16S], -0.177 ± 0.091.
Regarding EQYVVVANYQKQESSKISLSVGQVVDIIEKNESGWWFVSTAEEQGWVPATCLEGQ [E16K], the abundance fitness was -0.16 ± 0.16.
The result for EQYVVVANYQKQESSQISLSVGQVVDIIEKNESGWWFVSTAEEQGWVPATCLEGQ [E16Q] reads -0.008 ± 0.15; that for EQYVVVANYQKQESSDISLSVGQVVDIIEKNESGWWFVSTAEEQGWVPATCLEGQ [E16D], -0.211 ± 0.15; that for EQYVVVANYQKQESSGISLSVGQVVDIIEKNESGWWFVSTAEEQGWVPATCLEGQ [E16G], 0.057 ± 0.061.
